# Source: paper PMC10470539, “Characterization of a novel aromatic substrate-processing microcompartment in Actinobacteria” (mBio, 2023)
# B1: ARO dioxygenase (2-aminophenol-1,6-dioxygenase; ARO AmnA and AmnB) (Micromonospora rosaria) (protein)
# chain: MSRVFRVPLAPTRGGATTAPRTPAPAPAPTRPGIVAGCLSPHPPHLIYGENPPQNEPRSTGGWETLRWAYERLRARIRDVHKPDVLIVHAPHWITMVGHHVNCVPNPRGLSVEPIFPHLFRYRYDFRTDVELGEAIAEEASGLGLVTRTLRDPRVRVDYATIGALHLANPAWDIPVVSLSANNNPYFYSDASLTEMEVLGEATRLAVEATGRRAVLLASNSLSHLHWHEEPELPEDMEREHPYNNHQYRWDMKLLEAIRRGPTAPLRDLIPEHIEATASETKAGSLTWMLAAMGWPKVAGDVLGYGTIIGTGNAIVEWLPEGSHH
# notes: E. coli BL21(DE3) co-expression (codon-optimized; pLD54 alpha, pLD59 beta); beta with C-terminal 6xHis via Gly/Ser linker, tag kept; alpha untagged; 140 kDa dimer of heterodimers; modelled alpha D3-H278, beta T30-G322; iron in beta subunit; primers imply alpha N-term MADRTG, beta N-term MSRVFR; with 2-aminophenol 1,6-dioxygenase alpha subunit
# Columns and labels:
# [1] = target: T1, ARO AldDh (2-aminomuconic-6-semialdehyde dehydrogenase homolog) (Micromonospora rosaria, UniProt A0A136PUC7); assay: coupled assay, absorption spectra, product 2-aminomuconate at […] nm; format: biochemical; conditions: 2-AMS generated in situ from 0.5 µM 2-AP by ARO dioxygenase; 20 µM NAD+, 100 mM potassium phosphate pH 7.5
# T1 construct: gene AWW66_10300; E. coli BL21(DE3), codon-optimized, untagged (pLD69); ammonium sulfate and HIC enriched; primers imply N-term MTGLWSPTL, C-term VDLS
# T1 sequence (A0A136PUC7 1-502): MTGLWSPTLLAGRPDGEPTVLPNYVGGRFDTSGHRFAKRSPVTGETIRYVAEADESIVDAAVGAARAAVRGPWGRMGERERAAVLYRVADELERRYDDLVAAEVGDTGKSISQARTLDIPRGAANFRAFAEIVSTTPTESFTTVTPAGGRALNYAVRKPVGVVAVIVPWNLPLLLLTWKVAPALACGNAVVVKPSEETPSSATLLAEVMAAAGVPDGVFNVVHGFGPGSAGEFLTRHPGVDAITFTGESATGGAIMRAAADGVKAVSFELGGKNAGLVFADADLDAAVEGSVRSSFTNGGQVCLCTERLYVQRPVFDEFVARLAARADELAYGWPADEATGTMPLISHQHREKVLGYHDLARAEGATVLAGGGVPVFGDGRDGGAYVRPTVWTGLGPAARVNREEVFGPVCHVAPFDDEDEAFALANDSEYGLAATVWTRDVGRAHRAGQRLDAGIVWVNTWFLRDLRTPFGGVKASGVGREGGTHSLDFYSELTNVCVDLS
# [2] = target: ARO AldDh (ARO 2-aminomuconic-6-semialdehyde dehydrogenase homolog) from Micromonospora rosaria (Micromonospora rosaria); assay: SEC; purified ARO AldDh on analytical Superdex 200 10/300 GL in Buffer E (10 mM Tris-HCl pH 8.0, 0.5 M NaCl, 0.2 mM NAD+, 1 mM DTT, 5% glycerol); oligomer of the enzyme with itself
# [3] = target: ARO dioxygenase beta subunit (2-aminophenol-1,6-dioxygenase beta subunit) from Micromonospora rosaria, His-tagged (Micromonospora rosaria); assay: crystal structure; ARO dioxygenase, sitting drop vapor diffusion at room temperature; 0.1 M Tris pH 8.0, 0.5 M ammonium, 28% PEG 8000; 1.75 Å, P1 cell
# purified protein [4] = substrate: Nc1ccccc1O; assay: purified protein; format: biochemical, Micromonospora rosaria; conditions: 10 mM sodium phosphate pH 8.0, room temperature, 27 µg enzyme in 1 mL
# purified protein [5] = substrate: Oc1ccccc1O; assay: purified protein; format: biochemical, Micromonospora rosaria; conditions: 10 mM sodium phosphate pH 8.0, room temperature, 27 µg enzyme in 1 mL
# purified protein [6] = substrate: Nc1ccc(Cl)cc1O; assay: purified protein; format: biochemical, Micromonospora rosaria; conditions: 10 mM sodium phosphate pH 8.0, room temperature, 27 µg enzyme in 1 mL
molecule,measurement,setting,value
N/C(=C\C=C\C=O)C(=O)O [2-aminomuconate 6-semialdeyde],"coupled assay, absorption spectra, product 2-aminomuconate at 326 nm",[1],ability to convert 2-aminomuconate 6-semialdeyde (2-AMS) to 2-aminomuconate in vitro
ARO AldDh (ARO 2-aminomuconic-6-semialdehyde dehydrogenase homolog) from Micromonospora rosaria (enzyme),stoichiometry N,[2],3
"ARO dioxygenase beta subunit (2-aminophenol-1,6-dioxygenase beta subunit) from Micromonospora rosaria, His-tagged (natural protein)",stoichiometry N,[3],2
B1,Km,purified protein [4],70 µM
same,Km,purified protein [5],14 µM
same,Km,purified protein [6],29 µM
